Results on 3 proteins are retold here after PMC9930899, “New Insights into rice pyrimidine catabolic enzymes” (Frontiers in Plant Science, 2023).

Format in all cases: biochemical, Oryza sativa
Substrate in series [1]: CCCCCCCCCCC1=C(C)C(=O)C(OC)=C(OC)C1=O
Nature of the series: steady-state DHODH activity, Michaelis-Menten fit. Particulars: co-substrate L-dihydroorotate, 30°C. The text has this:
(§1) steady-state DHODH activity, Michaelis-Menten fit on OsDHODH

Substrate in series [2]: O=C1C[C@@H](C(=O)O)NC(=O)N1
Nature of the series: steady-state DHODH activity, Michaelis-Menten fit. The following applies: co-substrate decylubiquinone, 30°C.
From the text: as §1

Substrate in series [3]: O=C1CCNC(=O)N1
Kind of series: purified protein. Particulars: 0.1 M potassium buffer, pH 8, 1 mg/mL BSA, 37°C.

Substrate in series [4]: CC(CNC(N)=O)C(=O)O
Nature of the series: purified protein. The following applies: 25°C.

Substrate in series [5]: NC(=O)NCCC(=O)O
Kind of series: purified protein. Particulars: 25°C.

B1: OsDHODH (Oryza sativa Japonica Group) (protein)
chain: DEAKFCGWLFKSTQLVNPLFALLDAEFAHRLAVTAASHGFVPREKRPDPSVLGLEIWGRKFTNPIGLAAGFDKNAEAVEGLLGMGFGFVEVGSVTPLPQEGNPKPRIFRLREHGAVINRCGFNSEGIVVVAKRLGAQHGKRKMEETSSSTSPTTSDVKQGGKAGPGILGVNLGKNKISEDATADYVQGVHTLSQYADYLVINVSSPNTPGLRKLQGRKQLKDLVKKVQAARDEMQWAEDGPPPLLVKIAPDLSKQDLEDIAAVALALRLDGLIISNTTISRPSPADTHPLAQEAGGLSGKPLFDLSTNVLREMYILTRGKIPLIGCGGVSSGEDAYKKIRSGATLVQLYTAFAYGGPALIPRIKAELAECLERDGFKSVQEAVGADFK
notes: N-terminally truncated, starts at residue 82 (DEAK); N-terminal His-tag, pET15b, E. coli; full length 469 residues
Consider B1, for which the Km in series [1] is given as 4.56 ± 0.67 µM; in series [2], 29.7 ± 3.5 µM.

B2: OsDHP-T1 (Oryza sativa Japonica Group) (protein)
chain: EFCAAVGGGSGGCGVGGGGGGDGRRILIRGGTVVNAHRVEEADVYVEDGVIVAVRPNIPVGDDHVKVIDATGKYVMPGGIDPHTHLEMEFMGTVTIDDFFSGHAAALAGGTTMHIDFVIPVNGNLTAGLESYKQKAEKSAMDYGFHMAITKWNDDVSREMETMVKEHGINSFKFFMAYKGSLMVTDDLLLQGLQKCKSLGALAMVHAENGDAVAEGQQRMIDLGITGPEGHALSRPPVLEGEATARAIRLAKFVNTPLYVVHVMSIDAMDEIAKAKREGQRVIGEPVVSGLVLDDSWLWDPDFMIASKYVMSPPIREAGHNKALQVALSSGILQLVGTDHCTFNSTQKAFGSDDFRKIPNGVNGIEERMHIIWDSMVETGRISVSDYVRVTSTECAKIFNIYPRKGAILEGSDADIIILNPERSFVMGAHTHHSRSNTNVYEGRKGKGMVEVTISRGRVVWEDGILNVVPGSGRYVRTPPYSYLFDGIEKSDAAYRASLRAPVKRGKAAA
notes: N-terminal His-tag, pET19b, E. coli; full length 539 residues, 57,989 Da
On to B2, for which, in “purified protein [3]”, the Km amounted to 300 ± 40 µM, the kcat was 1.07 ± 0.04 s⁻¹ and the kcat/Km worked out at 3550 M⁻¹ s⁻¹.

B3: Osß-UP (Oryza sativa Japonica Group) (protein)
chain: MDSSNGERPPQGEDAPAAAAGSIGGYESLHRLLQSNLSPELFKEASRLLLGLNCGRALEAISLPEATSALAKAHNFDVQAFRFDADKEYLRQPRVIRVGLIQNSIAIPTTSHFADQKKAIMEKVKPMIDAAGDAGVNILCLQEAWTMPFAFCTREKRWCEFAEPVDGESTQFLQQLAKKYNMVIVSPILERDVNHGEIVWNTAVVIGNHGNIIGIHRKNHIPRVGDFNESTYYMEGNTGHPVFETAYGKIGVNICYGRHHPLNWLAFGLNGAEIVFNPSATVGELSEPMWPIEARNAAIANSYFVGSINRVGTEVFPNPFTSGDGKPQHADFGHFYGSSHFSAPDASCTPSLSRYRDGLMISDMDLNLCRQIKDKWGFRMTARYDTYASLLSEYLKPDFKPQVIVDPLINKSA
notes: full length, 413 residues (45,713 Da), N-terminal His-tag, pET15b, E. coli
Consider B3, for which, in “purified protein [4]”, the Km stood at 160 ± 20 µM, the turnover number (kcat) turned out to be 1.36 ± 0.07 s⁻¹ and the kcat/Km was 8500 M⁻¹ s⁻¹. Further, in the series “purified protein [5]”, the Michaelis constant (Km) turned out to be 140 ± 10 µM, the catalytic constant (kcat) was determined as 2.54 ± 0.07 s⁻¹ and the kcat/Km worked out at 18100 M⁻¹ s⁻¹.
